The record followed here is patent publication US20200397886A1 (University of Washington, published 2020).

This experiment addresses T1, I53-50A.
T1 construct: Trimeric nanostructure component without antigen, used in the 33% and 66% valency particles; also called I53-50A trimers
T1 chain: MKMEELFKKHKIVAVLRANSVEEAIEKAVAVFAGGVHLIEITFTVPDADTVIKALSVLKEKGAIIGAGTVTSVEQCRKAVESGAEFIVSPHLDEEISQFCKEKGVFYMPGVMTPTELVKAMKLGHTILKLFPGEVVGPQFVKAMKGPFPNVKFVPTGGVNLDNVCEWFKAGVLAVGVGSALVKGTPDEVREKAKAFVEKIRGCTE
In words: in vitro co-assembly of partial valency particles.

B1: I53-50B.4PosT1 (designed binder)
chain: MNQHSHKDHETVRIAVVRARWHAEIVDACVSAFEAAMRDIGGDRFAVDVFDVPGAYEIPLHARTLAETGRYGAVLGTAFVVNGGIYRHEFVASAVINGMMNVQLNTGVPVLSAVLTPHNYDKSKAHTLLFLALFAVKGMEAARACVEILAAREKIAA
notes: Pentameric nanostructure component expressed in E. coli; the N-terminal methionine is said to be optional; also called I53-50B.4PT1; I53-50B.4PT
Turning to B1, the binding result was “binds”.
